According to patent US20220016130:

Biological target: His-BRD4-N (amino acids 1-500), O60885

B1: GST-SPOP (protein)
chain: MSRVPSPPPPAEMSSGPVAESWCYTQIKVVKFSYMWTINNFSFCREEMGEVIKSSTFSSGANDKLKWCLRVNPKGLDEESKDYLSLYLLLVSCPKSEVRAKFKFSILNAKGEETKAMESQRAYRFVQGKDWGFKKFIRRDFLLDEANGLLPDDKLTLFCEVSVVQDSVNISGQNTMNMVKVPECRLADELGGLWENSRFTDCCLCVAGQEFQAHKAILAARSPVFSAMFEHEMEESKKNRVEINDVEPEVFKEMMCFIYTGKAPNLDKMADDLLAAADKYALERLKVMCEDALCSNLSVENAAEILILADLHSADQLKTQAVDFINYHASDVLETSGWKSMVVSHPHLVAEAYRSLASAQCPFLGPPRKRLKQS
- in vitro ubiquitination assay (western blot): The SPOP-CULLIN3-RBX1 complex was shown to catalyzed BRD4 ubiquitination in vitro
